Test system: K4 kissing-loop RNA reporter
Assay: apparent KD of K4 kissing-loop reporter; higher = weaker reporter binding
Conditions: Eterna round: R107
Experimental: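 RNA-MaP round R107: designed RNA switches with theophylline, tryptophan, arginine or FMN aptamers are transcribed on-chip within common flanks. They are titrated with a labelled K4 kissing-loop RNA reporter in RNA-MaP buffer (100 mM Tris pH 7.5, 80 mM KCl, 4 mM MgCl2), without ligand or with the indicated ligand. Median apparent KD per design.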

[1] = input ligand: theophylline 20 uM
[2] = input ligand: tryptophan 2.4 mM
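Note: bound reporter read as fluorescence of individual clusters on recovered sequencing chips by microscopy, with normalized cluster intensities fitted with a binding model.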

| Sequence | apparent KD of K4 kissing-loop reporter (input ligand: FMN 200 uM) | apparent KD of K4 kissing-loop reporter (input ligand: arginine 13.2 mM) | apparent KD of K4 kissing-loop reporter (input ligand: none) | apparent KD of K4 kissing-loop reporter [1] | apparent KD of K4 kissing-loop reporter [2] |
| --- | --- | --- | --- | --- | --- |
| CGCAGUGAUGUUGCGAGUAGCUACAGGGAAGGAGCGCUCUAGUGAGCAGGUAGGUCGCCCACGCAGUGAUGUUGCGUCAUAGGGU [Exclusion Arg A GF9] | 116 nM | 110 nM | 113 nM | 113 nM | 101 nM |
| GGAUCCACCAGUGAUGUUGGAGAAAACUCCAAGGAUAUGACGAAAGUCAGAAGGUGGUAGACUGGACAAAGUCCGGUCGGAUCCA [FmnA 23 #SwitchBubble #K4Early] | 719 nM | 113 nM | 126 nM | 68.1 nM | 160 nM |
| AAGGGCAGGACUUCCUUGCCGGAUAGAGAUACCAGCCCAGCAAAGGGCCCUUGGCAGCUCACUGACCUCAGUGAUGUUGAGGUUC [Xebisoer] | 369 nM | 268 nM | 332 nM | 272 nM | 297 nM |
| UGUACCGAGUCAGGAUAUGGCGUCGAAAGACGAAUUCUAGUGAUGUUAGGGAUCUGCGAAAGCAGUUCAGAAGGGACUUGGUACU [FmnBS 26 U36+U67] | 243 nM | 288 nM | 342 nM | 470 nM | 360 nM |
| CGUGAUGUAUGGCGGUUUGUCACUUAGGAUCAGGAUAUAUAAACAAAUAGAAGGGAUGGCGGAGUGAUGUUCCGCCGGCCGCCAU [FMN A Exl V8] | 173 nM | 128 nM | 161 nM | 150 nM | 148 nM |
| ACACGGAGAGGCAUAACGUGCAUCUUCAGCGAGGAUAUCCAUUACAGGAGAAGGCGCUCCGGAGUGAUGUUCCGGCAAAAGAUAC [Quatatte] | 83.5 nM | 151 nM | 102 nM | 146 nM | 91.5 nM |
| AAUCAAUACAGAAGGAGCGUGACAAUUACUAUUGAAUUAGGUGCUAGUGAUGUUAGCAUUACACAGGUAGGUCGCUGUACAUUUA [JR_SSArginiB_Sub011] | 81.4 nM | 85.5 nM | 87.5 nM | 89 nM | 78.3 nM |
| CGAUGGAUGGCAGGAUAUAGACAUUGAGUGAUGUUCGAUGAUUAUCCAUAUUCCCGUCACCUAUGACUAGAAGGGCCAUCCAUCG | 236 nM | 485 nM | 464 nM | 587 nM | 577 nM |
| GCAACAUUGGUAGGAUAUCAUUCUGAGUGAUGUUCAGGGUUCAGCUAACGAAAGUUAGUUGUACCAUGAGAAGGACUAAUGUUGC [Omei KL FMN B SS A v3] | 337 nM | 766 nM | 1220 nM | 1060 nM | 915 nM |
| UUGUGCAGCAAACGAGUGAUGUUCGACGAUACCAGCCUCGAUAGAGGCCCUUGGCAGCGUAAUAAUCACAGCCAAGGGCUGCACU [#SwitchBubble 4] | 651 nM | 535 nM | 749 nM | 774 nM | 560 nM |
| AUUUUGAGUGAUGUUCAUAUCUAUUCUGAAGGAGCGCUAAAUAAGGCAGGUAGGUCGCGGAAUAUAUAUAUAUAUAUAUAUAUAU [KL-SSArg-A30] | 538 nM | 809 nM | 711 nM | 624 nM | 537 nM |
| ACGUGCACCAGUGAUGUUGGAAAAUAUGAAGGAGCGUGCGAAAGCACAGGUAGGUCGCAUAAUAGCACGAGCCACGAAAGUGGCA [#SwitchBubble 6 #K4Early #Sliding] | 131 nM | 159 nM | 134 nM | 132 nM | 102 nM |
| ACGCGCGCGAGUGAUGUUCGGAGCGGCUGGCAGGAUAUGUAGCAAUGCAGAAGGGUCGUGGCGGGCGCGGCGAAAGCCGCGCCCG [#2 Exclusion - FMN A Attempt #6 (HarryS)] | 150 nM | 282 nM | 444 nM | 622 nM | 293 nM |
| UUGUUUGGUUGAGAGGUUGGGCGAGAUGAUACCAGUAUAGAAGAGUACCCUUGGCAGCAUAGGAGAGAUAUAGUGAUGUUGUAUG [SSTheophA.T] | 437 nM | 355 nM | 480 nM | 494 nM | 333 nM |
| UGACUGGACUGAAGGAGCGCUGAACUCCUAGUGAUGUUAGGACAACGAGACAAAGUCUCGCGGCAGGUAGGUCGCAGUCUAGUCU | 159 nM | 119 nM | 121 nM | 145 nM | 131 nM |
| UGACUGGACUGAAGGAGCGUUGAAGGAGCGUAAGGAGUGAUGUUCCAUACAGGUAGGUCGCAGCAGGUAGGUCGCAGUCUAGUCU [ArgBS 26 #DoubleAptamer #SwitchBubble] | 204 nM | 245 nM | 229 nM | 171 nM | 281 nM |
| AAGCCAAAGAUUGCUGCGGGUUCCAGAGAUACCAGCCGUAUUGAAGGCCCUUGGCAGCUCGAGUGAUGUUCGAGCCGUCUCUGGC [Lexerati] | 127 nM | 117 nM | 117 nM | 122 nM | 105 nM |
| UGUAUCAUCUAAGGAUAUAUCAUGUGAUGCACCGAGUAUCGCAUCAAUUCUGAGUGAUGUUCAGGUAUAGAAGGUAGAUGAUGCA [FMN B SS t2] | 207 nM | 178 nM | 212 nM | 259 nM | 228 nM |
| GGCCGAAGAGAAGGAUAUGGUUUCACGCGUCGUUAGUGAUGUUAAUGCGCAUGCCUUAGUAUAGAGCCAGAAGGUCUGGUCAGAA [theeternabot_sameState_KL_FMN_B_34] | 170 nM | 199 nM | 219 nM | 210 nM | 213 nM |
| AUUUAGACGAGUGAUGUUCGUGUUAAUACAGAGGAUAUGCGUGAUUGCAGAAGGCUGUAUUUAUAUAUGUUAUGUGGUUUUAAAA [whbob_Ex_FMNA__2th187] | 76.6 nM | 115 nM | 87.2 nM | 99.7 nM | 66.3 nM |
| AAUUCCUGUUAUGAUACCAGAAAUCACAGCAACCUGCCUACCUAGUGAUGUUAGGAGAAUUUCCCUUGGCAGCAUCGACUGAAGG [theeternabot_sameState_KL_Theo_B_38] | 147 nM | 173 nM | 145 nM | 151 nM | 124 nM |
| AGACUACCACACUGUCAAUAGACAGUGUACUAGGAUAUGCUGAUAAGCAGAAGGAGUGAUGUUCCGAGGUAGUCAAUAAAAUAAU [FmnAX 13 U28+G66] | 326 nM | 258 nM | 253 nM | 330 nM | 242 nM |

| Sequence | apparent KD of K4 kissing-loop reporter (input ligand: FMN 200 uM) | apparent KD of K4 kissing-loop reporter (input ligand: arginine 13.2 mM) | apparent KD of K4 kissing-loop reporter (input ligand: none) | apparent KD of K4 kissing-loop reporter [1] | apparent KD of K4 kissing-loop reporter [2] |
| --- | --- | --- | --- | --- | --- |
| CCAUCGCUAUUCGAUACCAGUCAUCAAAUCUUUGGUUUGAUAAAGGAGUGAUGUUCCCAAGACCCUUGGCAGCGAAUAGUGAUGG [Theophylline B K4 10] | 252 nM | 212 nM | 224 nM | 175 nM | 230 nM |
| CCUGUGUGUGAAGGAUAUAUUUCGCAUUAAAACUAGUGAUGUUGGUAAAUGGCACAAUCCGUAGCAAUAGAAGGUCACUCCGGAA [theeternabot_sameState_KL_FMN_B_22] | 499 nM | 445 nM | 793 nM | 498 nM | 524 nM |
| ACUGCCAUUGCGGCCGCCACUAUCUCACUUUGCGAAUCUGCACCGACUGAGUGAUGUUCGGUAAAUAGGACCGGGCAAUGGGCCG [theeternabot_sameState_KL_Trp_B_26] | 611 nM | 479 nM | 633 nM | 281 nM | 657 nM |
| GUUACGCAUGGAAGGAGCGCGAUUAAAUUUAGUGAGUGAUGUUCACAAAAUAAAACUAAAACGCAGGUAGGUCGCCAUGUGUAAC [Ex Arginine B K4 2] | 171 nM | 196 nM | 188 nM | 198 nM | 159 nM |
| UGAUACCAGACGGCCGCCACUCCUGCAGUCAAAGACUGCAAGGAAAUAUUCGUCCAGUGAUGUUGGAGGACCGGGUCUGGUAUCU [TrypBX 9 #SwitchBubble #Palindromic #StaticStem] | 921 nM | 687 nM | 820 nM | 670 nM | 1060 nM |
| AUUUUCAAUUUAUUAUAUAACUUUUCAGAAGGAGCGUGGAAGUUCACAGGUAGGUCGCUGAAUAUAGGACUAGUGAUGUUAGUUA [JR_Nu_SSArginiA_Sub023] | 284 nM | 247 nM | 279 nM | 268 nM | 258 nM |
| UGUACCGAAUCAGGAUAUGUCGUCGAAAGACGAAAUGGAGUGAUGUUCCUUAAACUGCGAAAGCAGACAGAAGGGAUUUGGUACU [FmnBS 29 A9+U77] | 161 nM | 386 nM | 470 nM | 403 nM | 385 nM |
| GCGCGGGAGUGAUGUUCCAAGUGGUGUUAACGAGGACCGGUACGGCCGCCACUCGAUACGGCCGGGCCGUAGGAUAAACUGGCGC [Same State - Tryptophan A (Freestyle 14)] | 405 nM | 376 nM | 441 nM | 318 nM | 408 nM |
| UGGACCAAGGAGUGAUGUUCCAAAUGUGAUACCAGCCACGAAAGUGGCCCUUGGCAGCACUGCCAAAGGACGAAAGUCCGGUCCU [#SwitchBubble 10 #StaticStem #K4Early] | 371 nM | 352 nM | 382 nM | 659 nM | 280 nM |
| CGGGUACGUCAAGGAUAUAGGCAUGACGUAGUGCAGUGAUGUUGCUCGAGUCUCUUCAACUGAGGACUAGAAGGUGAUCGUAACA [theeternabot_sameState_KL_FMN_B_15] | 491 nM | 351 nM | 631 nM | 644 nM | 344 nM |
| UGAUACCAGACGGCCGCCACUCCCGUAAGUCAAAGACUUACGAAGAGGGUUUUUUAGUGAUGUUGGAGGACCGGGUCUGGUAUCU [FiskerMod 18 - Jieux - Exclusion - Tryptophan B] | 618 nM | 256 nM | 618 nM | 653 nM | 2320 nM |
| GGCCGGAAGGCGGCCGCCACUCAGUGAUGUUGUGUGAAAGAAAAGAAAAGAAGAAAGAAAAGAAAGAGGACCGGGCCAAACGGCC | 257 nM | 224 nM | 504 nM | 643 nM | 580 nM |
| GCUAUGGUAGGAAGGAGCGCGGACGAUAUUUAUCGAGUGAUGUUCGAUUAAUUAAUUUUAACGCAGGUAGGUCGCCUACUAUAGC [Arginine B K4 28] | 135 nM | 82.2 nM | 105 nM | 88.2 nM | 106 nM |
| AACUGUCAAGGAACUUGCAACAAAGGUGAUACCAGCAUCGAAAGAUGCCCUUGGCAGCACCAACUUGCAGUGAUGUUGCAAGUAA [(T)'-(H)'-(T1)-(T2)-(H1)-(H2)_Design7] | 300 nM | 243 nM | 322 nM | 402 nM | 286 nM |
| GGAGUUACCUGGGAUACCAGUCGGAGUCUCAGAGCACAGAGUGAUGUUCUGGGAUGUUUCGGCCCUUGGCAGCUCUGGGACUCCA [#2 Exclusion - Theophylline B Attempt #14 (HarryS)] | 386 nM | 359 nM | 403 nM | 265 nM | 351 nM |
| AAGUAGCUCUCGGCCGCCACUCCUCAGUGAUGUUGAGAUAUUAACUGCCAAUUGGCGUAUUUAAAGAGGACCGGGAGAGCUACAA [AK2 SS Tryptophan B] | 389 nM | 389 nM | 476 nM | 397 nM | 129 nM |
| GCCCGAAAGGGCCGAAGUGUUUGCGGCGAUCGAGGACCGGUACGGCCGCCACUCGUCGAGGCGUUCAGUGAUGUUGAAAGCAUGA | 250 nM | 257 nM | 215 nM | 266 nM | 480 nM |
| CCUUCUCUUGAUAGUGAUGUUAUCAAGGGCAAGGAUAUCAUCUUAAUGAGAAGGUGUCCUUGAUAACAUGGAGGUCUGAAACAGA [Omei KL FMN A Exc C v5] | 108 nM | 186 nM | 229 nM | 321 nM | 335 nM |
| CAUAGUCACUGUGAUACCAGCCCGACUCUUGGCGUCUGCGGUCAAAGCCCAGUGAUGUUGGGCCCUUGGCAGCAUGGCGGCAACA [Xelexebi] | 136 nM | 114 nM | 132 nM | 112 nM | 120 nM |
| AAAUAGAUCAGUCACCCAGUGAUGUUGGAAGGAGCGUGCGAAAGCACAGGUAGGUCGCCAGAAUAAAAUUGGCUGAUCAAAAUAA | 260 nM | 337 nM | 212 nM | 393 nM | 149 nM |
| ACGUGAAGCGACUCCUAGUUAAACCGGGAAGGAGCGCGGAUAACCGCAGGUAGGUCGCCCGGAAGCCGGACCAGUGAUGUUGGUC [Exclusion Arginine A Gf 26] | 263 nM | 191 nM | 207 nM | 217 nM | 198 nM |

From the supplement of paper PMC9170038
